We go through two variants from IntAct's records for PubMed 16946707.

The labels stand for the following.
B1: Dynamin-1 (Homo sapiens), Q05193 (parent)
chain: MGNRGMEDLIPLVNRLQDAFSAIGQNADLDLPQIAVVGGQSAGKSSVLENFVGRDFLPRGSGIVTRRPLVLQLVNATTEYAEFLHCKGKKFTDFEEVRLEIEAETDRVTGTNKGISPVPINLRVYSPHVLNLTLVDLPGMTKVPVGDQPPDIEFQIRDMLMQFVTKENCLILAVSPANSDLANSDALKVAKEVDPQGQRTIGVITKLDLMDEGTDARDVLENKLLPLRRGYIGVVNRSQKDIDGKKDITAALAAERKFFLSHPSYRHLADRMGTPYLQKVLNQQLTNHIRDTLPGLRNKLQSQLLSIEKEVEEYKNFRPDDPARKTKALLQMVQQFAVDFEKRIEGSGDQIDTYELSGGARINRIFHERFPFELVKMEFDEKELRREISYAIKNIHGIRTGLFTPDMAFETIVKKQVKKIREPCLKCVDMVISELISTVRQCTKKLQQYPRLREEMERIVTTHIREREGRTKEQVMLLIDIELAYMNTNHEDFIGFANAQQRSNQMNKKKTSGNQDEILVIRKGWLTINNIGIMKGGSKEYWFVLTAENLSWYKDDEEKEKKYMLSVDNLKLRDVEKGFMSSKHIFALFNTEQRNVYKDYRQLELACETQEEVDSWKASFLRAGVYPERVGDKEKASETEENGSDSFMHSMDPQLERQVETIRNLVDSYMAIVNKTVRDLMPKTIMHLMINNTKEFIFSELLANLYSCGDQNTLMEESAEQAQRRDEMLRMYHALKEALSIIGDINTTTVSTPMPPPVDDSWLQVQSVPAGRRSPTSSPTPQRRAPAVPPARPGSRGPAPGPPPAGSALGGAPPVPSRPGASPDPFGPPPQVPSRPNRAPPGVPSRSGQASPSRPESPRPPFDL
partner: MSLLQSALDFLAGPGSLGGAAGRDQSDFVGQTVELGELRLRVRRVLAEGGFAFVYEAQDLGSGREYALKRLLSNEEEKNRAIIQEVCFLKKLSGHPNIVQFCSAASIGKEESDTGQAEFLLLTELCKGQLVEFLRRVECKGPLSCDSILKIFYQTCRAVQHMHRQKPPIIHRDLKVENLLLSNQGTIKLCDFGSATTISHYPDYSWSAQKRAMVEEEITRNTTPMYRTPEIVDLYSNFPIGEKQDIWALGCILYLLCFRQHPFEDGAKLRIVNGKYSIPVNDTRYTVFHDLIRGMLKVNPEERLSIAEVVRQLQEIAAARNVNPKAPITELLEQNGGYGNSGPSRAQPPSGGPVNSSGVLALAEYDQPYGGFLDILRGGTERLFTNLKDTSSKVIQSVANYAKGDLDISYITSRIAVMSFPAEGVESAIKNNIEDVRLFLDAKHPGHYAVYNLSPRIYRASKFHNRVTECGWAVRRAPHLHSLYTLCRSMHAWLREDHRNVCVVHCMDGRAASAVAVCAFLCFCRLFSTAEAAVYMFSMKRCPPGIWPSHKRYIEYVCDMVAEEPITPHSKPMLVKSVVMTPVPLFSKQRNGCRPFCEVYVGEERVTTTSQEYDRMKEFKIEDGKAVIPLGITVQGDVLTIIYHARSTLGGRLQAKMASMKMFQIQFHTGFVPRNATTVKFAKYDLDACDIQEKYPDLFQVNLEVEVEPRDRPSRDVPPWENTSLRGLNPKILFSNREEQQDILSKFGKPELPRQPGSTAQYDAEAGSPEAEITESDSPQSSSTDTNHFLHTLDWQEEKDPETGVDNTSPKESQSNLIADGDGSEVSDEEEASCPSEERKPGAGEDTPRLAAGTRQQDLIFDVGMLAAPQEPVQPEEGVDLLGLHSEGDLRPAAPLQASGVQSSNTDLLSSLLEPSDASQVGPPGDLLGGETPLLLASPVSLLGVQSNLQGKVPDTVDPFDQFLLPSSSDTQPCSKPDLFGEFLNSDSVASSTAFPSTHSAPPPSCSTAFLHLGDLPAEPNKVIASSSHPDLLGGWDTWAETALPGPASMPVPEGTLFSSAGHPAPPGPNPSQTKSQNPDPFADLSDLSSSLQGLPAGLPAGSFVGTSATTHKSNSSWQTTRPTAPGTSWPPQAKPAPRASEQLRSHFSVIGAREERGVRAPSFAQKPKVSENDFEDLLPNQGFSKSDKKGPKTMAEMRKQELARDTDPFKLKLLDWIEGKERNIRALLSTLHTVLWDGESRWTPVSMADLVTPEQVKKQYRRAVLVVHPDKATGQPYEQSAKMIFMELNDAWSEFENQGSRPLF

In the test the parent is B1. The settings on record: with gak_rat Gak.
In the case of I690K, the “effect of a mutation on the interaction” value is recorded as “disrupting interaction”.
K694A: the “effect of a mutation on the interaction” value was “increasing interaction”.
